Laboratory results published in paper PMC3549669 (Science signaling, 2012).

T1: GST-TBK1 (human, UniProt Q9UHD2 1-729)
T1 sequence (looked up): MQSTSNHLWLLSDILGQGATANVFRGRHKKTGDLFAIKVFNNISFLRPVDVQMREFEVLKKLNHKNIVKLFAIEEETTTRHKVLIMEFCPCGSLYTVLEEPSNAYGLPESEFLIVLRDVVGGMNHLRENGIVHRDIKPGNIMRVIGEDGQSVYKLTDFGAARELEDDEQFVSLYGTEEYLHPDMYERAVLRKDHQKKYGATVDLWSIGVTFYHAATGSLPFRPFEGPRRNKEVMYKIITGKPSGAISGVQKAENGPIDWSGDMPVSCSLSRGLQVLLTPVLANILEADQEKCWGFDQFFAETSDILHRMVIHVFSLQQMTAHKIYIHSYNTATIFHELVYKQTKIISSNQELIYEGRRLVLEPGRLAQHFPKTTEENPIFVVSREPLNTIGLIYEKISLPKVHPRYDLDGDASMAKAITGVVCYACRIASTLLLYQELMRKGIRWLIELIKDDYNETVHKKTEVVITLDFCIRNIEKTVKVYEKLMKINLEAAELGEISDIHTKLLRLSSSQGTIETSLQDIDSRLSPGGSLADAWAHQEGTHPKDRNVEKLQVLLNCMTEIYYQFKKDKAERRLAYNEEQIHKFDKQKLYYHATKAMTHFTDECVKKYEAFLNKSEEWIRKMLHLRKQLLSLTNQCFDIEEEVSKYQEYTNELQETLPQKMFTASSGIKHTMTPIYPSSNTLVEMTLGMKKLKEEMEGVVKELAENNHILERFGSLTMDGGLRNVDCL

T2: Flag-TBK1 (human, UniProt Q9UHD2 1-729)
T2 sequence (looked up): T1 sequence (looked up)


Key:
GST-TBK1 = biological target: T1, GST-TBK1; experiment: pull-down
SEC = biological target: the molecule itself; experiment: SEC
Flag-TBK1 = biological target: T2, Flag-TBK1; experiment: pull-down

Row | binding result (GST-TBK1) | binding result (Flag-TBK1) | Binder | binding result (SEC)
1 | binds |  | VTVGSLKTSAVPSTSTMSQEPELLISGMEKPLPLRTDFS (domain or fragment, human, UniProt Q86WV6 341-379, looked up) [His6-STING (341–379)] | binds
2 |  | binds | VTVGSLKTSAVPSTSTMAQEPELLISGMEKPLPLRTDFS (domain or fragment, human, UniProt Q86WV6 341-379, looked up) [GST-STING (341–379) S358A] | 
3 |  | binds | VTVGSLKTSAVPSTSTMSQEPELLISGMEKPLPLRTDFS (domain or fragment, human, UniProt Q86WV6 341-379, looked up) [GST-STING (341–379)] | 
4 |  | binds | VTVGSLKTSAVPSTSTMSQEPELLISGMEKPLPARTDFS (domain or fragment, human, UniProt Q86WV6 341-379, looked up) [GST-STING (341–379) L374A] | 
5 |  | binds | VTVGSLKTSAVPSTSTMSQEPELLIAGMEKPLPLRTDFS (domain or fragment, human, UniProt Q86WV6 341-379, looked up) [GST-STING (341–379) S366A] | 
6 |  |  | VTVGSLKTSAVPSTSTMSQEPELLIAGMEKPLPLRTDFS (domain or fragment, human, UniProt Q86WV6 341-379, looked up) [His6-STING (341–379) S366A] | binds
7 |  |  | VTVGSLKTSAVPSTSTMSQEPELLISGMEKPLPARTDFS (domain or fragment, human, UniProt Q86WV6 341-379, looked up) [His6-STING (341–379) L374A] | binds
